For assay [1], the target named is T1, human IL-33 (R&D Systems, #3625-IL-010/CF) (human, UniProt O95760 112-270).
T1 construct: Commercial recombinant protein; also called hIL-33; interleukin-33
T1 sequence (looked up): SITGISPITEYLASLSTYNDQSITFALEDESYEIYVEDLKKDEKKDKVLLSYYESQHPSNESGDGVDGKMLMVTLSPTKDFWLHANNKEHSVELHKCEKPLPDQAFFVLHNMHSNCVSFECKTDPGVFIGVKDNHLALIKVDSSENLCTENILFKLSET
The assay can be described thus: SPR 25C pH7.4, mAb captured. As to the method: (§1) Equilibrium dissociation constants (KD values) for IL-33 binding to purified anti-IL-33 monoclonal antibodies were determined using a real-time surface plasmon resonance biosensor using a Biacore 4000 instrument. The Biacore sensor surface was first derivatized by amine coupling with either a polyclonal rabbit anti-mouse antibody (GE, # BR-1008-38) or with a monoclonal mouse anti-human Fc antibody (GE, # BR-1008-39) to capture anti-IL-33 monoclonal antibodies expressed with mouse or with human IgG4 constant regions, respectively. All Biacore binding studies were performed in 0.01M ADA pH 7.4, 0.15M NaCl, 3 mM EDTA, and 0.05% v/v Surfactant Tween-20 (ABS-ET running buffer). […] Association of either hIL-33 or MfIL-33-6His to the captured monoclonal antibody was monitored for 4 minutes and their dissociation in ABS-ET running buffer was monitored for 10 minutes. The effect of reduced pH on the binding of each anti-IL-33 antibody to either hIL-33 or MfIL-33-6His was studied using an in-line pH chase assay format in 0.01M ADA pH 6.0, 0.15M NaCl, 3 mM EDTA, and 0.05% v/v Surfactant Tween-20 (ABS-ET pH6 buffer). To achieve this, association of either hIL-33 or MfIL-33-6His to the captured monoclonal antibody was monitored for 4 minutes in ABS-ET running buffer. Following a 30 second dissociation of either hIL-33 or MfIL-33-6His in ABS-ET running buffer, ABS-ET pH6 buffer was injected for 3 minutes, and the analyte dissociation under the low-pH conditions was measured. All the binding kinetic experiments were performed at both 25° C. and 37° C. Kinetic association (kₐ) and dissociation (kd) constants were determined by fitting the real-time sensorgrams to a 1:1 binding model using Scrubber 2.0c curve fitting software. Binding dissociation equilibrium constants (KD) and dissociative half-lives (t½) were calculated from the kinetic rate constants as: […]

Assay [2] deals with T2, cynomolgus monkey IL-33 expressed with a C-terminal hexahistidine tag (cynomolgus monkey).
T2 construct: also called MfIL-33-6His; Mf-IL-33-6His
T2 chain: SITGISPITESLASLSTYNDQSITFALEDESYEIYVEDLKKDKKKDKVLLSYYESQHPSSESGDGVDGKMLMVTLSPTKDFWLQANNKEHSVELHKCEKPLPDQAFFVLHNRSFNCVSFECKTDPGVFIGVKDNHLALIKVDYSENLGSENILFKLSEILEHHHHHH
Description: SPR 25C pH7.4, mAb captured. The procedure:
as §1

For assay [3], the target named is T3, pre-formed complex of hIL-33 and captured hST2-MMH (human, UniProt O95760 112-270).
T3 construct: Ligand-receptor complex on the sensor: hST2-MMH captured by anti-myc mAb and saturated with 100 nM hIL-33; also called hIL-33 pre-complexed with hST2-MMH
Description: SPR 25C, 100 nM mAb over hIL-33/hST2-MMH complex. The procedure: The ability of anti-IL-33 antibodies to bind to a pre-formed complex of IL-33 with ST2 was tested using Biacore T-200 instrument equipped with a real-time surface plasmon resonance biosensor. The experiment was performed at 25° C. with a running buffer composed of 0.01M HEPES pH 7.4, 0.15M NaCl, 3 mM EDTA, and 0.05% v/v Surfactant Tween-20 (HBS-ET). […] The captured hST2-MMH surface was then saturated by injecting 100 nM of human IL-33 (hIL-33; R&D Systems, #3625-IL-010/CF) for 3 minutes followed by a 3 minute injection of a 100 nM solution of the anti-IL-33 monoclonal antibody. The real-time binding response was monitored during the entire course of the experiment, and the observed binding response at 3 minutes after injection of anti-IL-33 antibody to the pre-formed complex of hIL-33 and captured hST2-MMH was recorded and tabulated and shown in Table 7. No non-specific binding of anti-IL-33 monoclonal antibody to the anti-myc tag capture surface was observed.

The target of assay [4] is T1, human IL-33 (R&D Systems, …). Description: SPR 37C pH7.4, mAb captured. As to the method:
as §1

Assay [5] deals with T2, cynomolgus monkey IL-33 expressed with …. The assay can be described thus: SPR 37C pH7.4, mAb captured. As to the method:
as §1

Assay [6] has the same target. Description: BLI; captured MfIL-33-6His, mAb-1 step with Buffer. As to the method:
(§2) Binding competition between a panel of different anti-IL-33 monoclonal antibodies was determined using a real time, label-free bio-layer interferometry assay on an Octet® HTX biosensor (ForteBio, A Division of Pall Life Sciences). The experiment was performed at 25° C. using a buffer of 0.01M HEPES pH7.4, 0.15M NaCl, 3 mM EDTA, 0.05% v/v Surfactant Tween-20, and 0.1 mg/ml BSA (HBS-ET kinetics buffer) with the plate shaking at a speed of 1000 rpm. […] The antigen-captured biosensors were then saturated with a first anti-IL-33 monoclonal antibody (subsequently referred to as mAb-1) by immersion into wells containing 50 μg/mL solution of mAb-1 for 5 minutes. The biosensors were then dipped into wells containing a 50 μg/mL solution of a second anti-IL-33 monoclonal antibody (subsequently referred to as mAb-2) for 4 minutes. The biosensors were washed in HBS-ET kinetics buffer in between every step of the experiment. The real-time binding response was monitored during the experiment, and the maximum binding response for each binding step was recorded. The response of mAb-2 binding to MfIL-33-6His pre-complexed with mAb-1 was measured, and competitive/non-competitive behavior of different anti-IL-33 monoclonal antibodies with respect to each other was determined.

Assay [7] shares this target. Description: BLI; mAb-1 on captured MfIL-33-6His. As to the method:
as §2

B1: H4H9664P (antibody, human IgG4, V domains shown)
VH: QVQLVESGGGVVQPGRSLRLSCAASGFTFSSYGLHWVRQSPGKGLEWVALISYDGSNKYYADSVKGRFTISRDNSKNTLYLQMNSLRPEDTAGYFCAKSLYTTSWYGGFDYWGQGTLVTVSS
VL: DIQMTQSPSSVSASVGDRVTITCRASQGIRSWLAWYQQKPGKAPNLLIYAASSLQSGVPSRFSGSGSGTDFTLTISSLQPEDFATYYCQQANSFPPTFGPGTKVDIK
notes: Human IgG4 Fc (H4H)
As usually defined, the Kd is a measure of binding affinity in units of concentration. By koff is commonly meant the first-order rate constant of dissociation. As a reminder, the kon is the second-order rate constant of association. Broadly, the t½ is the time needed for the level to fall by half in the phase considered. B1: in assay [1], the Kd turned out to be 0.757 nM, the koff turned out to be 0.000257 s⁻¹, the kon came out at 339000 M⁻¹ s⁻¹ and the t½ turned out to be 45 min. For the same molecule, in assay [2], the Kd came out at 11.8 nM, the koff came to 0.00165 s⁻¹, the kon was 140000 M⁻¹ s⁻¹ and the t½ turned out to be 7 min. Besides, the “Antibody Binding Response (RU)” value in assay [3] is -1 RU. In assay [4], this molecule came in with a Kd of 1.39 nM, a koff of 0.000721 s⁻¹, a kon of 519000 M⁻¹ s⁻¹ and a t½ of 16 min. In assay [5], this molecule had a Kd of 16.2 nM, a koff of 0.00584 s⁻¹, a kon of 361000 M⁻¹ s⁻¹ and a t½ of 2 min. In addition, the “mAb-2 Binding to the Pre-complex of mAb-1 & MfIL-33-6xHis” value (from here on “mAb-2 Binding to the Pre-complex”) in assay [6] turned out to be 0.31 nm. Besides, the “mAb-1 Binding (nm)” value in assay [7] is 0.61 nm.

B2: H4H9667P (antibody, human IgG4, V domains shown)
VH: EVQLVESGGGLVQPGGSLRLSCAASGFTFSTYSMHWVRQAPGKGLEYVSTINNNGDTTYYADSVKGRFTISRDNSKNTLYLQLGSLRPEDMAVYYCARQTYTSSWYGGFDSWGQGTLVTVSS
VL: DIQMTQSPSSVSASVGDRVTITCRASQGITSWLAWYQQKPGKAPKLLIYAASNLQSGVPSRFSGSGSGTDFTLTITSLQPEDFATYYCQQANSLPFTFGPGTKVDIK
notes: Human IgG4 Fc (H4H)
In assay [1], B2 yielded an equilibrium dissociation constant (Kd) of 0.395 nM, a dissociation rate constant (koff) of 0.000252 s⁻¹, a kon of 637000 M⁻¹ s⁻¹ and a t½ of 46 min. In addition, in assay [2], the Kd worked out at 2.89 nM, the off-rate (koff) stood at 0.000991 s⁻¹, the kon is 343000 M⁻¹ s⁻¹ and the t½ amounted to 12 min. Also, in assay [3], the “Antibody Binding Response (RU)” value was -1 RU. Also, in assay [4], the Kd is 0.618 nM, the koff was 0.000603 s⁻¹, the kon was 976000 M⁻¹ s⁻¹ and the t½ was found to be 19 min. Further, in assay [5], binding was put at a Kd of 4.66 nM, the koff is 0.00317 s⁻¹, the kon is 681000 M⁻¹ s⁻¹ and the t½ was 4 min. The “mAb-2 Binding to the Pre-complex” value in assay [6] was found to be 0.3 nm. Also, the “mAb-1 Binding (nm)” value in assay [7] amounted to 0.5 nm.

B3: H4H9666P (antibody, human IgG4, V domains shown)
VH: QVQLVQSGAEVKKPGASVKVSCKASGYTFTSYGISWVRQAPGQGLEWMGWIRAYNGYTNYAQKFQGRVTMTTDTSTNTAYMELRTLNSDDTAVYYCARDRYSGSFHGNFDYWGQGTLVTVSS
VL: DIQMTQSPSSVSASVGDRVTITCRASQGIFSWLAWYQQKPGKAPKVLIYAASNLESGVPSRFSGSGSGTDFTLTISSLQPEDFATYYCQQANSLPLTFGGGTKVEIK
notes: Human IgG4 Fc (H4H)
As for B3, the Kd was 0.551 nM in assay [1], 15.9 nM in assay [2], 0.681 nM in assay [4] and 32.7 nM in assay [5]. Also, the koff in assay [1] was 0.00028 s⁻¹; in assay [2], 0.00354 s⁻¹; in assay [4] it was 0.00077 s⁻¹; in assay [5], 0.0141 s⁻¹. The kon was determined as 508000 M⁻¹ s⁻¹ in assay [1], 222000 M⁻¹ s⁻¹ in assay [2], 1.13e+06 M⁻¹ s⁻¹ in assay [4] and 432000 M⁻¹ s⁻¹ in assay [5]. For the same molecule, the t½ in assay [1] worked out at 41 min; in assay [2] it was 3.3 min; in assay [4], 15 min; in assay [5], 0.8 min. In addition, the “Antibody Binding Response (RU)” value in assay [3] is -1 RU. Besides, the “mAb-2 Binding to the Pre-complex” value in assay [6] came out at 0.32 nm. For the same molecule, the “mAb-1 Binding (nm)” value in assay [7] came to 0.57 nm.

B4: H4H9665P (antibody, human IgG4, V domains shown)
VH: EVQLVESGGGLVQPGGSLRLSCAASGFTFSNYAMTWVRQAPGKGLEWVSTISGSGDNTYYADSVQGRFTISRGHSKNTLYLQMNSLRAEDTAVYYCAKPTYSRSWYGAFDFWGQGTMVTVSS
VL: DIQMTQSPSSVSASVGDRVTITCRASQGISSWLAWYQQKPGKAPQLLIYAASRLQSGVPSRFWGSGSGTDFTLTISSLQPEDFATYYCQQANNFPFTFGPGTKVDIK
notes: Human IgG4 Fc (H4H)
B4: the Kd in assay [1] came to 0.533 nM; in assay [2] it was 1.02 nM; in assay [4], 1.19 nM; in assay [5] it was 1.91 nM. The koff in assay [1] was found to be 0.000474 s⁻¹; in assay [2], 0.000566 s⁻¹; in assay [4], 0.00144 s⁻¹; in assay [5], 0.0021 s⁻¹. Further, the kon is 888000 M⁻¹ s⁻¹ in assay [1], 557000 M⁻¹ s⁻¹ in assay [2], 1.21e+06 M⁻¹ s⁻¹ in assay [4] and 1.1e+06 M⁻¹ s⁻¹ in assay [5]. The t½ in assay [1] was 24 min; in assay [2] it was 20 min; in assay [4], 8 min; in assay [5], 5 min. The “Antibody Binding Response (RU)” value in assay [3] came out at 0 RU. In addition, the “mAb-2 Binding to the Pre-complex” value in assay [6] worked out at 0.33 nm. Further, the “mAb-1 Binding (nm)” value in assay [7] amounted to 0.63 nm.

Values taken from patent US20160362487A1 (Regeneron, published 2016).
